B1: ALDH8A1 (parent)
chain: FTGSQPTAERITQLSAPHCKKLSL
B2: KLHL13 (parent)
chain: TGEFLKLPFERLAFVLSSNSLKHC

Variants of: B1
Test: protein stability index of a GFP-peptide fusion (GPS, HEK-293T) (PSI 1-6); higher = more stable
Conditions: c terminus: a fixed tail appended
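Also: lentivirally expressed fusions sorted by FACS into six bins by GFP to DsRed ratio, PSI derived from sequencing read proportions per bin multiplied by bin number.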

| Variant | protein stability index |
| --- | --- |
| Q5E | 2.57 |
| Q5D | 2.19 |
| Q5R | 2.39 |
| Q5F | 1.68 |
| Q5C | 2.45 |
| Q5S | 3.01 |
| Q5P | 2.99 |
| Q5A | 2.08 |
| Q5L | 1.65 |
| Q5N | 2.33 |
| Q5W | 4.02 |
| Q5K | 2.06 |
| Q5G | 2.15 |
| Q5I | 2.39 |
| Q5M | 2.19 |
| Q5H | 2.14 |
| Q5V | 2.38 |
| Q5Y | 2.36 |
| Q5T | 2.24 |
| I11H | 2.96 |
| I11S | 2.22 |
| I11Y | 2.18 |
| I11N | 2.4 |
| I11V | 2.44 |
| I11L | 2.15 |

| Variant | protein stability index |
| --- | --- |
| I11W | 2.08 |
| I11F | 2.9 |
| I11C | 2.6 |
| I11T | 2.84 |
| I11R | 2.81 |
| I11M | 2.61 |
| I11Q | 2.49 |
| I11K | 1.93 |
| I11E | 2.73 |
| I11G | 2.09 |
| I11D | 3.39 |
| I11P | 3.32 |
| I11A | 2.48 |
| T12A | 2.21 |
| T12E | 3.25 |
| T12C | 1.83 |
| T12L | 1.79 |
| T12P | 2.32 |
| T12M | 2 |
| T12D | 2.32 |
| T12V | 2.15 |
| T12F | 2.86 |
| T12Q | 2.36 |
| T12G | 2.27 |
| T12K | 2.3 |

| Variant | protein stability index |
| --- | --- |
| T12S | 2.79 |
| T12N | 2.25 |
| T12I | 1.51 |
| T12H | 1.84 |
| T12Y | 2.69 |
| T12R | 2.89 |
| T12W | 3.11 |
| R10Y | 1.65 |
| R10P | 2.7 |
| R10G | 2.28 |
| R10N | 2.6 |
| R10F | 1.9 |
| R10E | 2.51 |
| R10C | 1.94 |
| R10L | 2.11 |
| R10D | 2.31 |
| R10I | 1.92 |
| R10K | 1.81 |
| R10T | 2.39 |
| R10A | 2.31 |
| R10S | 2.42 |
| R10M | 1.97 |
| R10W | 1.93 |
| R10V | 1.63 |
| R10H | 2.3 |

| Variant | protein stability index |
| --- | --- |
| R10Q | 2.17 |
| P6G | 1.96 |
| P6H | 2.25 |
| P6Q | 2.38 |
| P6E | 2.79 |
| P6D | 2.43 |
| P6L | 2.04 |
| P6C | 2.42 |
| P6T | 1.77 |
| P6F | 1.9 |
| P6Y | 1.92 |
| P6A | 1.94 |
| P6K | 2.7 |
| P6S | 2.1 |
| P6M | 2.56 |
| P6N | 2.71 |
| P6V | 2.07 |
| P6W | 3.07 |
| P6R | 2.15 |
| P6I | 2.07 |
| L14Q | 2.57 |
| L14M | 1.86 |
| L14I | 2.53 |
| L14T | 2.87 |
| L14F | 1.79 |

| Variant | protein stability index |
| --- | --- |
| L14D | 3.04 |
| L14W | 2.2 |
| L14E | 3.18 |
| L14S | 2.76 |
| L14N | 2.4 |
| L14V | 1.9 |
| L14C | 1.79 |
| L14A | 2.26 |
| L14K | 2.73 |
| L14P | 2.77 |
| L14H | 2.58 |
| L14G | 2.56 |
| L14R | 2.37 |
| S4C | 2.31 |
| S4H | 2.59 |
| S4W | 3.16 |
| S4T | 2.69 |
| S4R | 1.62 |
| S4I | 2.36 |
| S4K | 2.6 |
| S4A | 2.56 |
| S4E | 3.18 |
| S4F | 2.03 |
| S4D | 3.06 |
| S4P | 2.67 |

| Variant | protein stability index |
| --- | --- |
| S4M | 1.98 |
| S4G | 1.7 |
| S4Y | 2.22 |
| S4N | 2.21 |
| S4L | 2.1 |
| S4Q | 2.02 |
| S4V | 2.75 |
| F1K | 3.96 |
| F1T | 4.27 |
| F1M | 3.62 |
| F1Y | 2.47 |
| F1S | 3.92 |
| F1P | 4.14 |
| F1V | 3.82 |
| F1G | 4.34 |
| F1N | 4.34 |
| F1D | 4.38 |
| F1Q | 4.31 |
| F1H | 4.18 |
| F1W | 3.35 |
| F1C | 3.48 |
| F1R | 3.78 |
| F1L | 3.65 |
| F1E | 4.26 |
| F1I | 3.86 |

| Variant | protein stability index |
| --- | --- |
| F1A | 4.03 |
| E9Q | 2.09 |
| E9T | 1.87 |
| E9D | 2.52 |
| E9P | 2.05 |
| E9R | 1.96 |
| E9W | 3.33 |
| E9L | 3.09 |
| E9Y | 3.14 |
| E9S | 1.86 |
| E9G | 2.1 |
| E9F | 2.74 |
| E9H | 2.15 |
| E9V | 1.46 |
| E9K | 2.06 |
| E9N | 1.99 |
| E9M | 1.37 |
| E9I | 2.23 |
| E9C | 2.14 |
| E9A | 1.96 |
| Q13H | 2.24 |
| Q13K | 2.48 |
| Q13D | 2.61 |
| Q13L | 2.08 |
| Q13V | 1.69 |

| Variant | protein stability index |
| --- | --- |
| Q13G | 2.31 |
| Q13P | 2.16 |
| Q13A | 2.31 |
| Q13E | 2.5 |
| Q13N | 2.2 |
| Q13T | 2.3 |
| Q13S | 2.12 |
| Q13I | 1.35 |
| Q13W | 2.67 |
| Q13F | 2.94 |
| Q13Y | 1.97 |
| Q13R | 1.91 |
| Q13M | 2.03 |
| Q13C | 2 |
| A8G | 2.95 |
| A8T | 2.24 |
| A8Y | 2.27 |
| A8I | 2.46 |
| A8H | 2.61 |
| A8P | 2.3 |
| A8C | 2.09 |
| A8W | 3.71 |
| A8D | 2.16 |
| A8R | 2.6 |
| A8F | 1.42 |

| Variant | protein stability index |
| --- | --- |
| A8Q | 2.4 |
| A8S | 1.9 |
| A8V | 2.45 |
| A8E | 2.6 |
| A8K | 1.8 |
| A8N | 2.09 |
| A8M | 2.58 |
| A8L | 2.42 |
| G3L | 2.6 |
| G3K | 3.45 |
| G3T | 2.69 |
| G3P | 2.07 |
| G3R | 2.71 |
| G3A | 2.88 |
| G3E | 3.56 |
| G3V | 2.44 |
| G3I | 2.77 |
| G3Y | 2.54 |
| G3M | 2.56 |
| G3Q | 2.38 |
| G3H | 2.4 |
| G3F | 1.97 |
| G3S | 2.65 |
| G3W | 2.66 |
| G3D | 3.15 |

| Variant | protein stability index |
| --- | --- |
| G3C | 2.68 |
| G3N | 2.62 |
| T2Q | 3.24 |
| T2C | 1.86 |
| T2K | 3.42 |
| T2A | 2.38 |
| T2S | 3.11 |
| T2V | 1.02 |
| T2E | 3.86 |
| T2P | 3.41 |
| T2I | 2.07 |
| T2M | 3.07 |
| T2N | 3.41 |
| T2H | 2.2 |
| T2L | 2.74 |
| T2D | 3.95 |
| T2Y | 3.35 |
| T2W | 2.53 |
| T2F | 2.89 |
| T2R | 3.37 |
| T2G | 3.19 |
| T7L | 2.27 |
| T7A | 3.05 |
| T7S | 2.08 |
| T7M | 2.12 |

| Variant | protein stability index |
| --- | --- |
| T7Q | 2.86 |
| T7K | 2.32 |
| T7E | 2.62 |
| T7G | 2.11 |
| T7F | 2.99 |
| T7I | 2.39 |
| T7V | 2 |
| T7W | 1.2 |
| T7C | 2 |
| T7Y | 2.61 |
| T7N | 2.83 |
| T7H | 2.02 |
| T7D | 2.98 |
| T7P | 2.67 |
| T7R | 2.55 |

Variants of: B2
Test: as above
Conditions: c terminus: a fixed tail appended

| Variant | protein stability index |
| --- | --- |
| C24Q | 1.6 |
| C24K | 1.61 |
| C24T | 2.1 |
| C24R | 2.4 |
| C24D | 2.13 |
| C24F | 3.88 |
| C24S | 1.76 |
| C24V | 2.76 |
| C24M | 2.65 |
| C24L | 2.62 |
| C24A | 1.75 |
| C24E | 1.81 |
| C24H | 2.56 |
| C24I | 4.16 |
| C24G | 1.9 |
| C24N | 2.94 |
| C24Y | 3.19 |
| C24W | 1.03 |
| L21H | 2.14 |
| L21P | 2.39 |
| L21F | 1.42 |
| L21I | 3.4 |
| L21R | 1.63 |

| Variant | protein stability index |
| --- | --- |
| L21Y | 2.33 |
| L21S | 1.44 |
| L21Q | 1.91 |
| L21C | 3.31 |
| L21K | 1.26 |
| L21V | 1.72 |
| L21E | 2.45 |
| L21T | 2.49 |
| L21G | 1.75 |
| L21N | 1.88 |
| L21M | 3.88 |
| L21D | 2.79 |
| L21A | 2.92 |
| S20T | 2.98 |
| S20R | 1.87 |
| S20P | 2.4 |
| K22M | 3.25 |
| K22V | 3.78 |
| K22Y | 1.96 |
| K22W | 3.33 |
| K22E | 2.2 |
| K22I | 2.96 |
| K22G | 2.18 |

| Variant | protein stability index |
| --- | --- |
| K22C | 4.71 |
| K22L | 3.44 |
| K22A | 2.4 |
| K22Q | 4.87 |
| K22P | 3.24 |
| K22T | 2.34 |
| K22R | 2.48 |
| K22S | 4.04 |
| K22D | 2.77 |
| K22N | 4.57 |
| H23M | 2.02 |
| H23Q | 4.44 |
| H23S | 4.04 |
| H23C | 2.87 |
| H23V | 2.8 |
| H23D | 2.27 |
| H23R | 1.99 |
| H23N | 2.42 |
| H23T | 2.17 |
| H23W | 1.88 |
| H23K | 2.49 |
| H23Y | 3.32 |
| H23P | 1.85 |

Source: the supplement of paper PMC10567573
